According to article PMC9942873 (Immunity, 2023):

B1: RUPA-100 (hIgG1) (antibody, V domains shown)
VH: QVQLVESGGGVVQPGRSLRLSCAASGFSFSHYGMHWVRQAPGKGLEWVAVISYDGNYKYYGDSVKGRFTISRDNFKNTLYLQMNSLRPEDTAVYYCAKGKAHSCVSTSCYTDFWGQGTLVTVPS
VL: SYELTQPPSVSVSPGQTARITCSGDALPKKYAYWYQQKSGQAPVLVIYEDSKRPSGIPERFSGSSSGTMATLTISGAQVEDEGDYYCYSTDSSYNHRGVFGGGTKLTVL
notes: IgG1; source: 293T cells, purified (Protein A), or produced as recombinant human IgG1 (GenScript)
B2: RUPA-154 (hIgG1) (antibody, V domains shown)
VH: QVQLVQSGAEVRKPGASVKVSCRTSGYTFTDYYMHWVRQAPGEGLEWMGSINPKSGGTSYAERFQGRVTMTMETSVSTAYLDLSSLRSDDTAVYYCARLLYSRAVYYYGMDVWGQGTTVTVSS
VL: SYELTQPPSVSVAPGKTARITCGGKDLGSKSVHWYQQKPGQAPVLVIYYDNIRPSGIPERFSGSNSGNTATLTISRVEAGDEADYYCQVWDSSSDHYVFGRGAKVTVL
notes: as for B1
B3: RUPA-160 (hIgG1) (antibody, V domains shown)
VH: QVQLVQSGAEVKKPGASVKASCKASGYTFDNFDIIWARQATGQGLEWMGWMNPNTGKKGYAQNLKDRVTMTRDSSISTAYLELSSLRSEDTAVYYCVRAVGSYYGSGGWFDPWGQGTLVTVSS
VL: QSVLTQPPSASGTPGQRVTIACSGSSSNIGGNNVKWYQQLPGTAPKLVIYNNDERPPGVPDRVSGSKSGTSASLAISGVQSEDEADYYCATWDDSMKREVFGGGTKLTVL
notes: as for B1
B4: RUPA-25 (hIgG1) (antibody, V domains shown)
VH: QVQLVQSGAEVKKPGASVKVSCTASGYNFLTHDISWVRQATGQGLEWMGWMNPNTGKKGYVQKFQGRVTMDRDMSKSTAYMELRSLTSEDTAVYYCVRGVGSYYGSGGWFDPWGQGTLVTVSS
VL: QPVLTQPPSASETPGQKVTISCSGSSSNIGSDTVSWYVQLPGTAPKLLIYNDNQRPSGVPDRFSGSKSGTSASLAISGLQSEDEADYYCATWDASLKRRVFGGGTTLTVL
notes: as for B1
B5: RUPA-58 (hIgG1) (antibody, V domains shown)
VH: QVQLVQSGPEAKKPGASVKVSCQASGYPFSGYYMHWLRQAPGQGLEWMGWMNPNSGGTKYAQRFQGRVTMTRDTSISTAHMELRGLRSDDTAVYYCARDYCTGSSCYRTDYDYWGQGTLVTVSS
VL: DIQMTQSPSSLSASVGDRVTITCRASQIISTYLNWYQHKPGKAPKLLIKSASTLQSGVPSRFSGSGSGTDFTLTITSLQPEDFATFYCQQSYRDPITFGQGTRLEIK
notes: as for B1

What follows are binders tested against Pfs48/45 D3 (K287-A428) (Plasmodium falciparum 3D7, UniProt Q8I6T1) (assay: ELISA). Settings: both partners purified.
Chain of Pfs48/45 D3 (K287-A428) (Q8I6T1 whole entry, looked up): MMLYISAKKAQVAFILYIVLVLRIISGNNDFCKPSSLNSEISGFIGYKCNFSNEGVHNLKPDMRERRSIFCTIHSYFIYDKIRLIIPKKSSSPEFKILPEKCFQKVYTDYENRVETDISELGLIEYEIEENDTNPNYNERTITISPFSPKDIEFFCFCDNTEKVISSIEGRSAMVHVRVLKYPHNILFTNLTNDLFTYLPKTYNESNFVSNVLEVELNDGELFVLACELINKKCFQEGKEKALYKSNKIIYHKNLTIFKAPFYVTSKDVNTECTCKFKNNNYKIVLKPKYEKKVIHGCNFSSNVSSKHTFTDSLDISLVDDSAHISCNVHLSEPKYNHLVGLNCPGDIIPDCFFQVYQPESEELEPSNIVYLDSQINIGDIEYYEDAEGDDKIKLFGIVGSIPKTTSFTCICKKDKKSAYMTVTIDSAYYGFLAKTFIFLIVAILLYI
B1: binds.
B2: binds.

These binders were tested against Pfs48/45 D2-3 (H184-A428) (Plasmodium falciparum 3D7, UniProt Q8I6T1) (assay: ELISA). Settings: both partners purified.
Chain of Pfs48/45 D2-3 (H184-A428) (Q8I6T1 whole entry, looked up): as above
B3: binds.
B4: binds.
B2: binds.

The binders below were run against Pfs48/45 D1-2 (N28-K289) (Plasmodium falciparum 3D7, UniProt Q8I6T1) (assay: ELISA). Settings: both partners purified.
Chain of Pfs48/45 D1-2 (N28-K289) (Q8I6T1 whole entry, looked up): as above
B5: binds.
B3: binds.
B4: binds.
B2: binds.
